Measurements reported in the RNAGym collection of RNA variant scans (doi:10.1073/pnas.2313332121).
This sample holds only a part of the variants without activity.

B1: TPR 5TU (parent)
chain: GGAUCUUCUCGAUCUAACAAAAAAGACAAAUCUGCCACAAAGCUUGAGAGCAUCUUCGGAUGCAGAGGCGGCAGCCUUCGGUGGCGCGAUAGCGCCAACGUUCUCAACUAUGACACGCAAAACGCGUGCUCCGUUGAAUGGAGUUUAUCAUG

Variants of: B1
Assay: polymerase ribozyme fitness, log enrichment relative to wild type (log ratio); higher = more active; in vitro selection for triplet polymerase activity
Method in brief: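 A single round of triplicate in vitro selection, including frozen incubation at −7 °C, was applied to PCR-built, transcribed mutant libraries of each subunit of a heterodimeric triplet polymerase ribozyme. Illumina sequencing of input and output libraries retained genotypes with ≥10 input reads and ≥1 read per output. Fitness is the base-2 logarithm of genotype enrichment divided by wild-type enrichment, from inverse-variance-weighted replicate averages.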

| Variant | polymerase ribozyme fitness (log ratio) |
| --- | --- |
| C18G G34U C57U C96U A147U | -2.53 |
| A17U A73U C93U A120G | -1.86 |
| A17U A24U A39G C63G | -4.15 |
| A17U C18A C54U U55G C75U C95A | -1.89 |
| A17U C35A C69G U78G G84A A91G C103A | ≤ -4.2 |
| C18U G42A A73U C95U A98U C103G | ≤ -4.2 |
| C18U C38U U55C A97U A120C | -1.43 |
| C18G A19U G83U C95U C118U U144A | -3.01 |
| C18A A29U G136A | ≤ -4.2 |
| A17U A26C C76A G86A C96A C105G A115G | ≤ -4.2 |
| A17U A29U A37C C75U G80U G92A C125U A142C | ≤ -4.2 |
| A17U C85G | -2.57 |
| C18U U53G C54A A91G A110G C114G | ≤ -4.2 |
| C18G C85G | -2.28 |
| C18G C85A | -1.49 |
| C18G A22G A23C C69A G86U | ≤ -4.2 |
| C18U C54U C93G A119C | ≤ -4.2 |
| C18U C85U | -0.241 |
| C18U C85G | -2.3 |
| C18G A40U | 0.0147 |
| C18U A29C U78G G92A A147C | ≤ -4.2 |
| C18G C32G C35U G86U C105G A115C | -4 |
| A17U C32G C57A U139A | ≤ -4.2 |
| A17U C93U | -1.07 |

| Variant | polymerase ribozyme fitness (log ratio) |
| --- | --- |
| A17U C93A G94U A121U A150G | ≤ -4.2 |
| A17U G83A G86U A142C | ≤ -4.2 |
| C18G U45A A121U | -2.73 |
| C18G C57A C93U U135C U145G | -3.11 |
| C18G U146C | -0.0606 |
| C18U A29U A30U G70C C149G | ≤ -4.2 |
| C18G A20G G25C U33G G68U C96U A98G | ≤ -4.2 |
| C18G A24U U33A G124A U135A | ≤ -4.2 |
| A17U C95U | -0.895 |
| C18U A37U U55A G86A | -3.67 |
| A17U C38A U53A G81C C95U U104G | -4 |
| C18A U31G G84C A89U | -2.91 |
| C18U A91G | -3.63 |
| A17U C36A C54U G74C A120U U144A | ≤ -4.2 |
| C18G C38G G81C C93G | ≤ -4.2 |
| C18U U31A A60G G84C A89C C105U | -2.16 |
| A17U A24C A26G C57U G86A | ≤ -4.2 |
| A17U U33A C36A C76A G94A G117U C129U | ≤ -4.2 |
| C18G C72U G86U G88C A150G | ≤ -4.2 |
| C18U A40C C93A | -2.24 |
| C18G A21G A24U A41C U53G C54G G84U G92U C93G G143C | ≤ -4.2 |
| C18U A41C C72U C93G U104G | ≤ -4.2 |
| C18G A24U U55A C69U G74A | -2.16 |
| A17U A19G A22U C93A | -4.01 |

| Variant | polymerase ribozyme fitness (log ratio) |
| --- | --- |
| A17U U31G G50C U78G U90G C96G | ≤ -4.2 |
| A17U C18U C96G C125U | -1.1 |
| C18G G42A U45A G58U A122C A142G | ≤ -4.2 |
| C18U C96U | -0.659 |
| A17U A28C C87A | ≤ -4.2 |
| C18U A22G A49C G86A C131G | -4.14 |
| A17U C38A U53A G74A C95U | ≤ -4.2 |
| C18G C93U A98G A120C G141U | 0.17 |
| C18U A29U A52C C93A C125G U144A A147U | ≤ -4.2 |
| A17U A30C C38U U53G G58U C99U C132U | ≤ -4.2 |
| C18U A40U G143C | -2.98 |
| C18G G42A C54U G94A | ≤ -4.2 |
| A17U U101G | 0.484 |
| C18U A19U A64G A89G A119U U146C | ≤ -4.2 |
| C18U A41G C51U A115C G140U | -3.82 |
| A17U C85A C96G | -2.34 |
| C18A A23G A28C C43U A52C U146A | ≤ -4.2 |
| C18U A39G U53C | -3.19 |
| C18G A30U C35A U61G G62U C93U U111G G124A | ≤ -4.2 |
| C18G U31C G59C G81A C116G A138G | -4.15 |
| A17U C57G | -0.677 |
| C18U U53A C95U C99G | -3.76 |
| C18U U56A C85A G124A U135G G136A | ≤ -4.2 |
| C18U C54A A64G G83C A119U A147C | ≤ -4.2 |

| Variant | polymerase ribozyme fitness (log ratio) |
| --- | --- |
| A17U C35A A47U A66C A73U G86A A91C U109G | ≤ -4.2 |
| A17U A19G C36U G42C G50A A73U A147C | ≤ -4.2 |
| A17U A39G G50C A52C C96U C118U | ≤ -4.2 |
| C18U A60G U82A G141C | -0.334 |
| A17U G84U | -1.75 |
| A17U U146C | -0.884 |
| C18U C57G U61A C87U A89U C116U C118G A122G U139A | ≤ -4.2 |
| C18G C36G U78A C85A | ≤ -4.2 |
| A17U C54A | -1.45 |
| C18G A37C C93A A115G | -4.01 |
| C18G A21G | -0.433 |
| C18A C35G A39U G84U G126A A150C | ≤ -4.2 |
| A17U U53G C99A C125G G141U U146C | ≤ -4.2 |
| A17U G58A C76U C87A A120G G133U | ≤ -4.2 |
| C18U A39G U53C C57G C75A U139G A150C | ≤ -4.2 |
| C18A A19U C76A C85U C99U U104G A110G G143C | ≤ -4.2 |
| C18U C85U C105U | 0.286 |
| A17U C95U C99A A107G G133U | ≤ -4.2 |
| C18G A26U A47U G67C C105G U146A C149G | ≤ -4.2 |
| C18G A49U A119G | -1.83 |
| A17U C87A A98G C132U G136A | ≤ -4.2 |
| C18G G92U U130G | -4.01 |
| A17U G124U | -0.693 |
| A17U A41C G94C | -1.13 |

| Variant | polymerase ribozyme fitness (log ratio) |
| --- | --- |
| A17U A40C C43G A52G G92C G128C | ≤ -4.2 |
| A17U C18A C35U C36G C105A | ≤ -4.2 |
| A17U A20U A37U G48U C96A U101C | ≤ -4.2 |
| C18A A21U A29U U56A C95A A137G A142C | ≤ -4.2 |
| A17U G50U C63U C93U C103U G126A C132U | -3.74 |
| C18G A24C G34A C57A C85U A89U A97G A120G A121U | ≤ -4.2 |
| A17U A30U G42A C95A A138G | ≤ -4.2 |
| C18U A142C | -0.999 |
| A17U G42A A91C A122U G136C | ≤ -4.2 |
| C18U G94A | -1.37 |
| C18G A39G A40U G67A U90C A97G C99U | ≤ -4.2 |
| C18G C85A U145G A147U | -0.193 |
| A17U A21U C43U G71A C75U C93A C114U A120U U151G | ≤ -4.2 |
| C18U A23U A91U C95G U104C C118A A147U | ≤ -4.2 |
| C18U U55A | -1.49 |
| C18G U78A G83A C118U | ≤ -4.2 |
| C18U C38U A39C G92U C103U | ≤ -4.2 |
| A17U A26C G62A G86U C99U U134C A137U G140A A147U | ≤ -4.2 |
| C18G C27U A37G A47C U55A G65U C85U | -4.19 |
| A17U C36G G67U C87G C95G C99A C103A | ≤ -4.2 |
| A17U G58U G74C G86A | ≤ -4.2 |
| A17U C57U G136A | 0.435 |
| C18A A30G C38U G48C G71A A89U C96U A97C | ≤ -4.2 |
| C18G C57A U134G U145A | -3.18 |

| Variant | polymerase ribozyme fitness (log ratio) |
| --- | --- |
| C18A U56A C85G C96A | -3.54 |
| C18G G94A | -1.09 |
| C18U A37C G68A A107U C125A G140C | ≤ -4.2 |
| C18U C36A | -4.01 |
| C18G C38A C69G C87U G143U U145A | -3.47 |
| C18G A49C G67U G84U A107U | ≤ -4.2 |
| C18A A19G C57A C87U C129A U135G | ≤ -4.2 |
| C18U A22U C43U C95U U101G G136A A138U | ≤ -4.2 |
| A17U G100A A120C A150U | ≤ -4.2 |
| C18U C132U U135A | -2.33 |
| A17U C27G G58C C96A C116U | ≤ -4.2 |
| C18U A30U G65U G84U C105U | ≤ -4.2 |
| C18G G83A U145G U151G | ≤ -4.2 |
| C18U A22U U53G C96A | -3.13 |
| C18G A64C U82G A137G | ≤ -4.2 |
| C18U A37U U144A | -1.92 |
| C18G U56A A73U G83C | -3.86 |
| C18A A19C G50U C75U A110U | ≤ -4.2 |
| C18U A40C C57A G126U | -0.291 |
| C18A A52G C87A G92C C95A U104A | ≤ -4.2 |
| A17U A19G A30G C38G U45A G88U | ≤ -4.2 |
| C18U U55A C57G A66U U82G G94C A113U | ≤ -4.2 |
| A17U U55G G68U G84A C103A G152A | ≤ -4.2 |
| A17U C76U C96U | 0.123 |

| Variant | polymerase ribozyme fitness (log ratio) |
| --- | --- |
| C18U C93U | -1.73 |
| C18U C93G | -3.19 |
| A17U A29C A66C C95A C132G | ≤ -4.2 |
| C18G C54U U78C | -2.12 |
| A17U G50A | -2.57 |
| C18U G80U U148C | -3.99 |
| C18G G71C C76A G88A G94A A113G A119U C129U | ≤ -4.2 |
| C18G A29C C35A A89U G128A U144G | ≤ -4.2 |
| C18G A41C C85A G126U | -0.946 |
| C18U C87G | ≤ -4.2 |
| C18G A113G U134A | -3.95 |
| C18G U31A A120G G128U A137G | -4.17 |
| A17U U56C G74U C76U G84U C125G A138C | ≤ -4.2 |
| C18U G84A U102A C123G | -2.76 |
| C18A U56A G58C G94A | -0.964 |
| A17U U101A U139G A142U | -3.82 |
| C18G A24G C57U C93G G94C G117C | ≤ -4.2 |
| C18G U53A C57U G59C U61A C95G | -3.99 |
| A17U G59U C93U C114G | -3 |
| C18U A97G C131G | -3.22 |
| A17U C32U G128U | ≤ -4.2 |
| C18G G46A G74C U77A U135C | ≤ -4.2 |
| C18U C51U C96A G126C C132U | -2.04 |
